Reference: patent US20250108132A1

Target: purified cyno C3 protein (CompTech, CY113) (cynomolgous monkey (Macaca fascicularis))
Test: sandwich ELISA; known concentrations of purified cyno C3 read on the human C3 kit, relative to human C3

- cross-reactivity: 30%
Substance: human C3 ELISA kit (Abcam, ab108823) (antibody)
